Test results reported in the supplement of paper PMC10126150.
± gives the standard deviation of the averaged measurements.

Test system: ATP
Assay: switch fluorescence ratio, 500 uM ATP over buffer (Cy3 cluster intensity, sum of 5 cycles each) (fold (ratio)); higher = stronger signal-on switching upon ATP binding; sequences stand for … in TCGTCGGCAGCGTCAGATGTGTATAAGAGACAGTTTTTTTTTTTTTTTTTTTTTTTTT…TC
Conditions: aptamer strand: ATP DNA aptamer (quencher-CACCTGGGGGAGTATTGCGGAGGAAGG + anchor), 100 nM annealed; ATP concentration: 500 uM
Outline: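 After annealing to 100 nM quencher-labelled ATP aptamer, Cy3-labelled switching-strand clusters on a modified Illumina MiSeq flow-cell were imaged in selection buffer. A second image followed after 15 min with 500 uM ATP at 22 °C, and five such buffer/ATP cycles were done, each separated by NaOH stripping and re-annealing. The fluorescence ratio, averaged per switch-domain sequence, is summed target-cycle over summed buffer-cycle Cy3 intensity per cluster, with clusters outside 100-1000 RFU excluded.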
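Further: ATP exposure 15 min at 22 °C before imaging.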

| Sequence | switch fluorescence ratio |
| --- | --- |
| GCTTCGAGGG | 0.968 ± 0.013 |
| GCTTCGGGGG | 1.06 ± 0.043 |
| GCTTCGTTGG | 1.17 ± 0.18 |
| GCTTCTGAGG | 1.07 ± 0.018 |
| GCTTCTGGAA | 1.06 ± 0.018 |
| GCTTCTGGTT | 0.988 ± 0.023 |
| GCTTGCACTA | 0.998 ± 0.015 |
| GCTTGCCGGT | 1 ± 0.037 |
| GCTTGCGATG | 1.01 ± 0.011 |
| GCTTGCTATT | 0.965 ± 0.021 |
| GCTTGCTTTT | 0.989 ± 0.022 |
| GCTTGGACGG | 1.02 ± 0.055 |
| GCTTGGATAA | 1.02 ± 0.032 |
| GCTTGGGATT | 0.977 ± 0.029 |
| GCTTGGTGCT | 1.05 ± 0.031 |
| GCTTGTGACG | 1.02 ± 0.058 |
| GCTTGTTTGT | 1.02 ± 0.024 |
| GCTTTAAGTA | 0.992 ± 0.044 |
| GCTTTAGAGG | 1.004 ± 0.0053 |
| GCTTTATTGC | 1.01 ± 0.014 |
| GCTTTCATTT | 1.013 ± 0.0049 |
| GCTTTCCCTT | 1.022 ± 0.01 |
| GCTTTCGATG | 1.02 ± 0.02 |

| Sequence | switch fluorescence ratio |
| --- | --- |
| GCTTTCTCGG | 1.08 ± 0.048 |
| GCTTTGATTT | 1.02 ± 0.022 |
| GCTTTGGAAG | 0.985 ± 0.034 |
| GCTTTGGGAC | 1.25 ± 0.28 |
| GCTTTGTACG | 1.042 ± 0.0014 |
| GCTTTTAAGT | 0.99809 ± 0.00068 |
| GCTTTTAGCC | 0.991 ± 0.043 |
| GCTTTTCGTA | 0.9995 ± 0.0064 |
| GCTTTTGTTT | 1.04 ± 0.013 |
| GCTTTTTCTT | 1.018 ± 0.004 |
| GCTTTTTTTT | 1.01 ± 0.019 |
| GGAAAAAGGC | 0.9838 ± 0.0058 |
| GGAAAAAGTG | 0.991 ± 0.014 |
| GGAAAAGAGA | 1.01 ± 0.017 |
| GGAAACAGGG | 0.964 ± 0.02 |
| GGAAACGATT | 1.01 ± 0.035 |
| GGAAACTAGG | 1.016 ± 0.003 |
| GGAAAGGGAT | 0.991 ± 0.012 |
| GGAAAGTTGG | 0.996 ± 0.012 |
| GGAAATAAAA | 1.22 ± 0.24 |
| GGAAATGAGT | 1.02 ± 0.016 |
| GGAAATGGGT | 1.05 ± 0.036 |
| GGAAATGTCG | 0.918 ± 0.078 |

| Sequence | switch fluorescence ratio |
| --- | --- |
| GGAAATTCAT | 1.36 ± 0.54 |
| GGAACAGGGT | 0.934 ± 0.072 |
| GGAACGGGGA | 1.01 ± 0.017 |
| GGAACGGGTC | 1.02 ± 0.024 |
| GGAACTGCTG | 1.04 ± 0.029 |
| GGAACTTTTA | 1.01 ± 0.023 |
| GGAAGAATGG | 0.985 ± 0.024 |
| GGAAGATGGG | 0.99 ± 0.021 |
| GGAAGGGTTG | 1 ± 0.034 |
| GGAAGGTGGG | 1.15 ± 0.25 |
| GGAAGGTTTT | 0.97669 ± 0.00029 |
| GGAAGTAGAT | 1.01 ± 0.028 |
| GGAAGTGGCA | 1.01 ± 0.041 |
| GGAATAATGT | 1.03 ± 0.061 |
| GGAATAGATT | 0.99048 ± 0.00037 |
| GGAATAGGCT | 0.967 ± 0.059 |
| GGAATCCGGC | 1.06 ± 0.02 |
| GGAATGTGAA | 0.978 ± 0.019 |
| GGAATGTGGG | 0.984 ± 0.042 |
| GGAATGTTGC | 0.9733 ± 0.0039 |
| GGAATTATTG | 1.08 ± 0.15 |
| GGAATTTCGG | 1.17 ± 0.23 |
| GGAATTTGGA | 0.983 ± 0.057 |

| Sequence | switch fluorescence ratio |
| --- | --- |
| GGAATTTGGG | 0.99 ± 0.021 |
| GGACAATGAG | 0.998 ± 0.035 |
| GGACACTCTG | 0.977 ± 0.013 |
| GGACAGGTTT | 0.9784 ± 0.0034 |
| GGACAGTTGT | 1.01 ± 0.057 |
| GGACCAGGGA | 1 ± 0.046 |
| GGACCGGCTA | 0.998 ± 0.02 |
| GGACGACCGG | 1.02 ± 0.027 |
| GGACGGCTGC | 1.02 ± 0.029 |
| GGACGGGGAC | 1.12 ± 0.015 |
| GGACGGGTGC | 1.1 ± 0.088 |
| GGACTACCTG | 1.01 ± 0.022 |
| GGACTAGGTT | 1.006 ± 0.0033 |
| GGACTCTAGG | 0.979 ± 0.027 |
| GGACTGAGGA | 1.002 ± 0.01 |
| GGACTGTGGG | 1.02 ± 0.044 |
| GGACTGTTTG | 1.01 ± 0.041 |
| GGACTTAATG | 1.02 ± 0.016 |
| GGACTTGGTT | 1.01 ± 0.034 |
| GGAGAATATT | 1.02 ± 0.059 |
| GGAGACGGGT | 1.02 ± 0.036 |
| GGAGAGAAGC | 1.02 ± 0.076 |
| GGAGAGATTT | 1.01 ± 0.034 |

| Sequence | switch fluorescence ratio |
| --- | --- |
| GGAGAGGTTG | 0.971 ± 0.021 |
| GGAGAGTCGG | 0.977 ± 0.035 |
| GGAGATATTA | 1.01 ± 0.026 |
| GGAGCAAAGG | 2.63 ± 0.1 |
| GGAGCGAGGG | 1.11 ± 0.061 |
| GGAGGAAGAT | 1.047 ± 0.0093 |
| GGAGGACTCG | 0.982 ± 0.05 |
| GGAGGAGAAT | 1 ± 0.014 |
| GGAGGCCCCA | 0.996 ± 0.033 |
| GGAGGCGTTC | 0.995 ± 0.013 |
| GGAGGCTGAG | 0.993 ± 0.011 |
| GGAGGGACTG | 1.06 ± 0.17 |
| GGAGGGAGGT | 1.01 ± 0.012 |
| GGAGGGAGTG | 0.98 ± 0.025 |
| GGAGGGCGTG | 0.988 ± 0.021 |
| GGAGGGGCAC | 0.979 ± 0.036 |
| GGAGGGGGAT | 1.03 ± 0.043 |
| GGAGGGGGCG | 0.999 ± 0.061 |
| GGAGGGGGGT | 1.01 ± 0.023 |
| GGAGGGGGTT | 1.01 ± 0.051 |
| GGAGGGGTTG | 1.04 ± 0.015 |
| GGAGGGTGGT | 0.9906 ± 0.0019 |
| GGAGGTGGGT | 1.01 ± 0.03 |

| Sequence | switch fluorescence ratio |
| --- | --- |
| GGAGGTTGGC | 1.02 ± 0.07 |
| GGAGGTTTGG | 0.992 ± 0.044 |
| GGAGTAATTT | 1.07 ± 0.016 |
| GGAGTAGACT | 1.02 ± 0.02 |
| GGAGTAGCTA | 1.03 ± 0.04 |
| GGAGTAGGGA | 1.02 ± 0.031 |
| GGAGTGTTTC | 1.01 ± 0.016 |
| GGAGTTAGGA | 0.9866 ± 0.0098 |
| GGAGTTAGTC | 1.01 ± 0.021 |
| GGAGTTATAA | 1.05 ± 0.034 |
| GGAGTTTAAG | 0.996 ± 0.039 |
| GGAGTTTCGG | 1 ± 0.031 |
| GGATAACGTA | 1.01 ± 0.049 |
| GGATAGCCGA | 0.99 ± 0.086 |
| GGATAGCTCG | 0.987 ± 0.041 |
| GGATAGGATG | 0.974 ± 0.022 |
| GGATAGTGGT | 1.01 ± 0.0079 |
| GGATATACGT | 1.01 ± 0.017 |
| GGATATATTG | 1.02 ± 0.024 |
| GGATATCGAG | 0.9982 ± 0.0069 |
| GGATATCGTT | 1.032 ± 0.0059 |
| GGATATGGCA | 1.01 ± 0.037 |
| GGATATGGTT | 0.987 ± 0.034 |

| Sequence | switch fluorescence ratio |
| --- | --- |
| GGATATGTTG | 0.994 ± 0.019 |
| GGATATTTTT | 1.01 ± 0.016 |
| GGATCACTTA | 1.02 ± 0.023 |
| GGATCATGTG | 1.004 ± 0.0049 |
| GGATCCGAGC | 1.03 ± 0.033 |
| GGATCGAGAC | 0.9755 ± 0.0034 |
| GGATCTTAAG | 0.991 ± 0.035 |
| GGATGACCTA | 0.976 ± 0.021 |
| GGATGACGTC | 1.035 ± 0.0091 |
| GGATGACTGG | 0.9993 ± 0.0061 |
| GGATGAGGGA | 0.957 ± 0.029 |
| GGATGAGTGC | 0.99 ± 0.023 |
| GGATGATCGT | 0.954 ± 0.029 |
| GGATGATGGG | 1.01 ± 0.046 |
| GGATGCATTG | 0.972 ± 0.011 |
| GGATGCTAGG | 1.01 ± 0.048 |
| GGATGGACTG | 0.937 ± 0.035 |
| GGATGGGGTC | 0.975 ± 0.02 |
| GGATGGTTCG | 0.972 ± 0.023 |
